According to doi:10.1101/2021.07.29.454247 (bioRxiv, 2021):

Target: endogenous TRPM2 of mouse brain (mouse (endogenous in brain), UniProt Q91YD4 1-1506)
Assay: co-IP

Chain of endogenous TRPM2 of mouse brain (Q91YD4 whole entry): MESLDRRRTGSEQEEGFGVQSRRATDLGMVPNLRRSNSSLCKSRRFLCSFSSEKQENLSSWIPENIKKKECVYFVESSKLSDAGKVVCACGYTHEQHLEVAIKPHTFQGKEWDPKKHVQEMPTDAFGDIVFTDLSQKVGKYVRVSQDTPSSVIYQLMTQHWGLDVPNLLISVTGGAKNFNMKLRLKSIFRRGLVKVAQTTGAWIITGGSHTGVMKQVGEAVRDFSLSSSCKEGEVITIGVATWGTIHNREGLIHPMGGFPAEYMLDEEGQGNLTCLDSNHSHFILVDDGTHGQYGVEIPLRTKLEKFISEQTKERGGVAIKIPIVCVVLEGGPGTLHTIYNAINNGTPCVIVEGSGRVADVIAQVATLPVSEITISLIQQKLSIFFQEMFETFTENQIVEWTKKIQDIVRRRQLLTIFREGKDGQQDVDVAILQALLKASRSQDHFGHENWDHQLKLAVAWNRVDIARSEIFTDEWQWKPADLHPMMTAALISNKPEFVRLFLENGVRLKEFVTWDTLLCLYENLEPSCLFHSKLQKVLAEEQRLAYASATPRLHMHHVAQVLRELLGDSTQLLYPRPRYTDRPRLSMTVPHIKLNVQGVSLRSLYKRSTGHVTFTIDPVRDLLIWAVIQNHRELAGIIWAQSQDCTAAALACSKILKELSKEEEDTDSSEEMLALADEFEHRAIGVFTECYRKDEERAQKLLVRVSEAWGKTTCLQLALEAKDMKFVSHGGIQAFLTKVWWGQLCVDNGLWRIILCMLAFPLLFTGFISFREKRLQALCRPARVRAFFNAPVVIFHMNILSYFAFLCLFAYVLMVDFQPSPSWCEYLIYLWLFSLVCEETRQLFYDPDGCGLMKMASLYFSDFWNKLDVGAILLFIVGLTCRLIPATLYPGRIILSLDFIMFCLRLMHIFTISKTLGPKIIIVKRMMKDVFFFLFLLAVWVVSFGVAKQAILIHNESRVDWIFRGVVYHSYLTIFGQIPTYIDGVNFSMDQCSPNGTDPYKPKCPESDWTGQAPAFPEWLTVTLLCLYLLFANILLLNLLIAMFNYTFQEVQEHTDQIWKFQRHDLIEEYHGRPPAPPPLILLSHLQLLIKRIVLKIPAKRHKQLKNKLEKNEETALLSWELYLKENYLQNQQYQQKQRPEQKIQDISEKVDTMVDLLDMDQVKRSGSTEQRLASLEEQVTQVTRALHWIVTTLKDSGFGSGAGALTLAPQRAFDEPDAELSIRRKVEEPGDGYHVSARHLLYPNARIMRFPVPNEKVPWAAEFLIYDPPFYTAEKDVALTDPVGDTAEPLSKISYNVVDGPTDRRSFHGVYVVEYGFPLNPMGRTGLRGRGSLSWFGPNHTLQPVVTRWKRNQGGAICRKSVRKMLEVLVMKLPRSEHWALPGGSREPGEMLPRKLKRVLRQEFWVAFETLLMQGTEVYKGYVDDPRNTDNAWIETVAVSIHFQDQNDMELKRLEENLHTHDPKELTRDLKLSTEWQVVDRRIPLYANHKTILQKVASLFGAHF

B1: endogenous PKCγ of mouse brain and neurons (enzyme)
chain: not shown
B1 was tested, and the “fold of PKCγ pulled down by anti-TRPM2, MCAO against sham” value was roughly 1.5 fold.
